Laboratory results from patent publication US20040210042A1 (published 2004).
Ends that are not written are not given here.

Target: T1, polypeptide translated from the polynucleotide of SEQ ID NO: 62 (human, UniProt Q05513 356-592)
T1 construct: retested as a pGBKT7 fusion in yeast AH109
T1 sequence: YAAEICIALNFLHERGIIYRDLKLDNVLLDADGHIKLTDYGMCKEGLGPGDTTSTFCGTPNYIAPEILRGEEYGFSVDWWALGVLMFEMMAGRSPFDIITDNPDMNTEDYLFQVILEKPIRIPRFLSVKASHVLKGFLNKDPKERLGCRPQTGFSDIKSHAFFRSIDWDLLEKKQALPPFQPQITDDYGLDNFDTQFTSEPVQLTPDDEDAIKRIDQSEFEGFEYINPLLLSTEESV
Assay: yeast two-hybrid screen, LexA system, histidine and LacZ reporters, human kidney library
From the text: Then, the Human kidney […] LexA library (manufactured by Clontech Co., Ltd.) was introduced to the above-described strain and 10⁶ colonies were screened. At the first screening, a histidine-deficient medium was used and about 200 colonies were selected based on the expression of a histidine gene, which was a reporter of the interaction. At the second screening, 31 colonies were obtained based on the expression of LacZ, which was another reporter of the interaction. Finally, 31 clones each of which had been confirmed to surely have two kinds of reporter activities were selected. The above procedures were carried out on the basis of protocols of the yeast two-hybrid method from Invitrogen Co., Ltd. and Clontech Co., Ltd.
The library vectors were recovered from the yeast colonies selected as described above, and the nucleotide sequences were analyzed using the DNA sequencer (the same as above). The nucleotide sequences are shown in SEQ ID NOS: 33 to 63 in the Sequence Listing.

- binding result: binds
B1: cytoplasmic domain of RAGE (receptor for advanced glycation endproduct) (receptor, UniProt Q15109 364-404, looked up)
chain: QRRQRRGEERKAPENQEEEEERAELNQSEEPEAGESSTGGP
modifications: not fully specified
notes: domain: cytoplasmic domain; also called RAGECD; RAGECD fragments
